According to PMC9352680, “A comprehensive thermodynamic model for RNA binding by the Saccharomyces cerevisiae Pumilio protein PUF4”:
Where a chain is given by its changes, count along the chain named. In names and notes the source's numbering stands.

T1: PUF4 RNA-binding domain (Saccharomyces cerevisiae, UniProt P25339 537-888)
T1 sequence: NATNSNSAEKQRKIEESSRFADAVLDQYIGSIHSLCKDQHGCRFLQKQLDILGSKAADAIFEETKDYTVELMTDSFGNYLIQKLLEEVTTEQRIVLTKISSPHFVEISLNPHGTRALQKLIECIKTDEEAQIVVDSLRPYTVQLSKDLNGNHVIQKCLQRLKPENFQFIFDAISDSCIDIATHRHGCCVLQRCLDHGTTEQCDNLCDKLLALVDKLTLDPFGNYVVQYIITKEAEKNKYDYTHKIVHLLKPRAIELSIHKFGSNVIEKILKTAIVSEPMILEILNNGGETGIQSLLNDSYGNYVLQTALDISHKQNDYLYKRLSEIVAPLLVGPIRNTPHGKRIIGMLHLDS

B1: Ib_S1_P4E.1_K4.1_C4.1_H4.1_[T3C]_A4.1_F4.1_[T8A]_T4.1 (ssRNA)
RNA: UCUCUUUGCAUAUAAUCUCUU
B2: Ib_S1_P4E.1_K4.1_C4.1_H4.1_[G2T]_A4.1_F4.1_[T8A]_T4.1 (ssRNA)
RNA: UCUCUUUUUAUAUAAUCUCUU
B3: Ib_S1_P4E.1_K4.1_C4.1_H4.1_[G2A]_A4.1_F4.1_[T8C]_T4.1 (ssRNA)
RNA: UCUCUUUAUAUAUCAUCUCUU
B4: Ib_S1_P4E.1_K4.1_C4.1_H4.1_[G2A]_A4.1_F4.1_[T8A]_T4.1 (ssRNA)
RNA: UCUCUUUAUAUAUAAUCUCUU
B5: Ia_S1_P4E.1_K4.1_C4.1_H4.1_[G2C]_A4.1_F4.1_T4.1 (ssRNA)
RNA: UCUCUUUCUAUAUUAUCUCUU
B6: Ic_S2_P5E.1_K5.1_C5.1_H5.1_A5.1_[T5G]_F5.1_[T8A]_[T9C]_[A10C]_T5.1 (ssRNA)
RNA: UUUGAUUAAUAUGAUAUCGUUCUUUCUUGUAGUAACCUUCUUUCUCGAUAUCAUAUUAAUCUUU
B7: Ic_S2_P5E.1_K5.1_C5.1_H5.1_A5.1_[T5G]_[T6C]_[A7C]_F5.1_[T8C]_[A10T]_T5.1 (ssRNA)
RNA: B6 RNA with U33C, A34C, A35C, C36U, C37U
B8: Ic_S2_P5E.1_K5.1_C5.1_H5.1_A5.1_[T5C]_[T6C]_[A7T]_F5.1_[T8C]_[T9C]_T5.1 (ssRNA)
RNA: B6 RNA with G32C, U33C, A34U, A35C, C37A
B9: Ic_S2_P5E.1_K5.1_C5.1_H5.1_A5.1_[T5A]_[T6A]_[A7C]_F5.1_[T9G]_[A10G]_T5.1 (ssRNA)
RNA: B6 RNA with G32A, U33A, A34C, A35U, C36G, C37G
B10: Ic_S2_P5E.1_K5.1_C5.1_H5.1_A5.1_[T5A]_[A7T]_F5.1_[T9A]_[A10G]_T5.1 (ssRNA)
RNA: B6 RNA with G32A, A34U, A35U, C36A, C37G
B11: Ic_S2_P5E.1_K5.1_C5.1_H5.1_A5.1_[T5G]_[T6C]_F5.1_[T8C]_[A10G]_T5.1 (ssRNA)
RNA: B6 RNA with U33C, A35C, C36U, C37G
B12: Ic_S2_P5E.1_K5.1_C5.1_H5.1_A5.1_[T5G]_[T6C]_[A7C]_F5.1_[T9A]_[A10T]_T5.1 (ssRNA)
RNA: B6 RNA with U33C, A34C, A35U, C36A, C37U
B13: Ic_S2_P5E.1_K5.1_C5.1_H5.1_A5.1_[T5C]_[T6G]_[A7T]_F5.1_[T8G]_[T9C]_[A10C]_T5.1 (ssRNA)
RNA: B6 RNA with G32C, U33G, A34U, A35G
B14: Ic_S2_P5E.1_K5.1_C5.1_H5.1_A5.1_[T6G]_[A7T]_F5.1_[T8C]_[T9C]_[A10T]_T5.1 (ssRNA)
RNA: B6 RNA with G32U, U33G, A34U, A35C, C37U
B15: Ic_S2_P5E.1_K5.1_C5.1_H5.1_A5.1_[T6C]_[A7G]_F5.1_[T8C]_[T9C]_[A10G]_T5.1 (ssRNA)
RNA: B6 RNA with G32U, U33C, A34G, A35C, C37G
B16: Ic_S2_P5E.1_K5.1_C5.1_H5.1_A5.1_[T6A]_[A7C]_F5.1_[T8C]_[T9A]_[A10T]_T5.1 (ssRNA)
RNA: B6 RNA with G32U, U33A, A34C, A35C, C36A, C37U
B17: Ic_S2_P5E.1_K5.1_C5.1_H5.1_A5.1_[T5A]_[T6C]_[A7C]_F5.1_[T9A]_[A10G]_T5.1 (ssRNA)
RNA: B6 RNA with G32A, U33C, A34C, A35U, C36A, C37G
B18: Ic_S2_P5E.1_K5.1_C5.1_H5.1_A5.1_[T6A]_[A7G]_F5.1_[T9C]_[A10C]_T5.1 (ssRNA)
RNA: B6 RNA with G32U, U33A, A34G, A35U
B19: Ic_S2_P5E.1_K5.1_C5.1_H5.1_A5.1_[T6C]_F5.1_[T8A]_[A10T]_T5.1 (ssRNA)
RNA: B6 RNA with G32U, U33C, C36U, C37U
B20: Ic_S2_P5E.1_K5.1_C5.1_H5.1_A5.1_[A7T]_F5.1_[T9C]_[A10G]_T5.1 (ssRNA)
RNA: B6 RNA with G32U, A34U, A35U, C37G
B21: Ic_S2_P5E.1_K5.1_C5.1_H5.1_A5.1_[T6A]_[A7G]_F5.1_[T9A]_[A10C]_T5.1 (ssRNA)
RNA: B6 RNA with G32U, U33A, A34G, A35U, C36A
B22: Ic_S2_P5E.1_K5.1_C5.1_H5.1_A5.1_[T5A]_[T6C]_[A7T]_F5.1_[T8C]_[T9A]_T5.1 (ssRNA)
RNA: B6 RNA with G32A, U33C, A34U, A35C, C36A, C37A
B23: Ic_S2_P5E.1_K5.1_C5.1_H5.1_A5.1_[T5C]_[T6C]_[A7G]_F5.1_[T8A]_[T9C]_[A10C]_T5.1 (ssRNA)
RNA: B6 RNA with G32C, U33C, A34G
B24: Ic_S2_P5E.1_K5.1_C5.1_H5.1_A5.1_[T5G]_[A7T]_F5.1_[T8C]_[T9C]_[A10T]_T5.1 (ssRNA)
RNA: B6 RNA with A34U, A35C, C37U
B25: Ic_S2_P5E.1_K5.1_C5.1_H5.1_A5.1_[T5A]_[T6C]_[A7C]_F5.1_[T9A]_[A10T]_T5.1 (ssRNA)
RNA: B6 RNA with G32A, U33C, A34C, A35U, C36A, C37U
B26: Ic_S2_P5E.1_K5.1_C5.1_H5.1_A5.1_[T5G]_[T6C]_[A7T]_F5.1_[T8C]_[A10C]_T5.1 (ssRNA)
RNA: B6 RNA with U33C, A34U, A35C, C36U
B27: Ic_S2_P5E.1_K5.1_C5.1_H5.1_A5.1_[T5C]_[T6G]_[A7T]_F5.1_[T8C]_[T9G]_[A10T]_T5.1 (ssRNA)
RNA: B6 RNA with G32C, U33G, A34U, A35C, C36G, C37U
B28: Ic_S2_P5E.1_K5.1_C5.1_H5.1_A5.1_[T5C]_[A7G]_F5.1_[T8G]_[T9C]_[A10T]_T5.1 (ssRNA)
RNA: B6 RNA with G32C, A34G, A35G, C37U
B29: Ic_S2_P5E.1_K5.1_C5.1_H5.1_A5.1_[T5G]_[T6C]_F5.1_[T8C]_[T9C]_[A10G]_T5.1 (ssRNA)
RNA: B6 RNA with U33C, A35C, C37G
B30: Ic_S2_P5E.1_K5.1_C5.1_H5.1_A5.1_[T5C]_F5.1_[T8C]_[T9G]_[A10C]_T5.1 (ssRNA)
RNA: B6 RNA with G32C, A35C, C36G
B31: Ic_S2_P5E.1_K5.1_C5.1_H5.1_A5.1_[T5G]_[T6C]_[A7T]_F5.1_[A10T]_T5.1 (ssRNA)
RNA: B6 RNA with U33C, A34U, A35U, C36U, C37U
B32: Ic_S2_P5E.1_K5.1_C5.1_H5.1_A5.1_[T5C]_F5.1_[T8A]_[T9A]_T5.1 (ssRNA)
RNA: B6 RNA with G32C, C36A, C37A
B33: Ic_S2_P5E.1_K5.1_C5.1_H5.1_A5.1_[T5C]_[T6A]_[A7T]_F5.1_[T9A]_T5.1 (ssRNA)
RNA: B6 RNA with G32C, U33A, A34U, A35U, C36A, C37A
B34: Ic_S2_P5E.1_K5.1_C5.1_H5.1_A5.1_[T6G]_[A7C]_F5.1_[T8C]_[T9G]_[A10G]_T5.1 (ssRNA)
RNA: B6 RNA with G32U, U33G, A34C, A35C, C36G, C37G
B35: Ic_S2_P5E.1_K5.1_C5.1_H5.1_A5.1_[T5C]_[T6G]_[A7T]_F5.1_[T8C]_[T9C]_[A10C]_T5.1 (ssRNA)
RNA: B6 RNA with G32C, U33G, A34U, A35C
B36: Ic_S2_P5E.1_K5.1_C5.1_H5.1_A5.1_[T5C]_[T6A]_[A7T]_F5.1_[T8G]_T5.1 (ssRNA)
RNA: B6 RNA with G32C, U33A, A34U, A35G, C36U, C37A
B37: Ic_S2_P5E.1_K5.1_C5.1_H5.1_A5.1_[T5C]_[T6A]_[A7C]_F5.1_[T9G]_[A10G]_T5.1 (ssRNA)
RNA: B6 RNA with G32C, U33A, A34C, A35U, C36G, C37G
B38: Ic_S2_P5E.1_K5.1_C5.1_H5.1_A5.1_[T5C]_[T6G]_[A7T]_F5.1_[T9G]_[A10T]_T5.1 (ssRNA)
RNA: B6 RNA with G32C, U33G, A34U, A35U, C36G, C37U
B39: Ic_S2_P5E.1_K5.1_C5.1_H5.1_A5.1_[T6C]_[A7G]_F5.1_[T8G]_T5.1 (ssRNA)
RNA: B6 RNA with G32U, U33C, A34G, A35G, C36U, C37A
B40: Ic_S2_P5E.1_K5.1_C5.1_H5.1_A5.1_[T5C]_[A7C]_F5.1_[T8A]_[T9G]_[A10C]_T5.1 (ssRNA)
RNA: B6 RNA with G32C, A34C, C36G
B41: Ic_S2_P5E.1_K5.1_C5.1_H5.1_A5.1_[T5C]_[A7C]_F5.1_[T9C]_[A10G]_T5.1 (ssRNA)
RNA: B6 RNA with G32C, A34C, A35U, C37G
B42: Ic_S2_P5E.1_K5.1_C5.1_H5.1_A5.1_[T5C]_[T6G]_[A7C]_F5.1_[T8G]_[T9C]_[A10C]_T5.1 (ssRNA)
RNA: B6 RNA with G32C, U33G, A34C, A35G
B43: Ic_S2_P5E.1_K5.1_C5.1_H5.1_A5.1_[T5G]_[A7C]_F5.1_[T8A]_[T9C]_[A10T]_T5.1 (ssRNA)
RNA: B6 RNA with A34C, C37U
B44: Ic_S2_P5E.1_K5.1_C5.1_H5.1_A5.1_[T5A]_[T6C]_[A7T]_F5.1_[T8A]_[T9G]_[A10T]_T5.1 (ssRNA)
RNA: B6 RNA with G32A, U33C, A34U, C36G, C37U
B45: Ic_S2_P5E.1_K5.1_C5.1_H5.1_A5.1_[T5C]_[T6C]_[A7T]_F5.1_[T8C]_[T9G]_[A10C]_T5.1 (ssRNA)
RNA: B6 RNA with G32C, U33C, A34U, A35C, C36G

The binders below were run against T1, PUF4 RNA-binding domain (assay: Mg; RNA-MaP; 20 mM Na-HEPES pH 7.4, 30 mM KOAc, 0.75 mM MgCl2, 0.1% Tween-20, 5% glycerol, 0.1 mg/mL BSA, 2 mM DTT; 25 C; 0.0125-409.6 nM protein). Settings: tags: N-His6-TEV cleaved; C-SNAP kept, Cy3B-labelled; label: tethered on chip by stalled RNA polymerase.

First: B1
Second: B2
The Kd of the first is higher: over 2300 nM for the first, 2120 nM for the second. The second binds more tightly here.

First: B3
Second: B4
The Kd of the first is 2-fold higher: 1060 nM for the first, 532 nM for the second. The second binds more tightly here.

Going from B5 to B6, the Kd falls from 1380 nM to 832 nM (1.7-fold).

First: B7
Second: B8
The Kd of the first is 2.3-fold higher: 254 nM for the first, 110 nM for the second.

First: B9
Second: B10
The Kd of the first is 5-fold higher: 26 nM for the first, 5.21 nM for the second.

Going from B11 to B12, the Kd falls from 794 nM to 4.62 nM (170-fold).

Compared with B13, B14 is 9.5-fold lower in Kd: 205 nM for the first, 21.6 nM for the second. The second binds more tightly here.

Compared with B15, B16 is 110-fold lower in Kd: 1530 nM for the first, 13.7 nM for the second. The second binds more tightly here.

Going from B17 to B18, the Kd falls from 28.5 nM to 17.8 nM (1.6-fold).

B19 and B20 are within 1.5-fold of each other in Kd: 29.9 nM for the first, 42.9 nM for the second.

Going from B21 to B22, the Kd rises from 2.48 nM to 1040 nM (420-fold). The first binds more tightly here.

Going from B23 to B24, the Kd falls from 1140 nM to 175 nM (6.5-fold). The second binds more tightly here.

Compared with B25, B26 is 81-fold higher in Kd: 4.74 nM for the first, 383 nM for the second.

Compared with B27, B28 is 8-fold higher in Kd: 207 nM for the first, 1660 nM for the second.

Compared with B29, B30 is 2.1-fold lower in Kd: 1330 nM for the first, 641 nM for the second.

B31 and B32 are within 1.5-fold of each other in Kd: 37.5 nM for the first, 55.1 nM for the second.

Compared with B33, B34 is 3600-fold higher in Kd: 0.373 nM for the first, 1340 nM for the second.

First: B35
Second: B36
The Kd of the first is 65-fold higher: 167 nM for the first, 2.58 nM for the second. The second binds more tightly here.

Compared with B37, B38 is 6.6-fold higher in Kd: 4.81 nM for the first, 31.8 nM for the second.

Compared with B39, B40 is 22-fold higher in Kd: 37.7 nM for the first, 818 nM for the second.

First: B41
Second: B42
The Kd of the first is 3.6-fold lower: 152 nM for the first, 548 nM for the second.

B43 and B44 are within 1.5-fold of each other in Kd: 722 nM for the first, 737 nM for the second.

Work on B45 yielded a Kd of 101 nM.
